B1: C2690 (antibody, V domains shown)
VH: EVQLVESGGGVVQPGRSLRVSCAASGFTFSSYGMHWVRQAPGKGLEWVAVISYDGSNKYYADSVKGRFSISRDNSKNTLYLQMNSLRAEDTAVYYCAKVISSFGGGSLNYFDYWGQGTLVTVSS
VL: AIRMTQSPSSLSASVGDRVTITCQASQDISNYLNWYQQKPGKAPKLLIYDASNLETGVPSRFSGSGSGTDFTFTISSLQPEDIATYYCQQYDNLPITFGQGTRLEIK
B2: D006 (antibody, V domains shown)
VH: EVQLVQSGAEVKKPGESLKISCKGSGYSFTSYWIGWVRQMPGKGLEWMGIIYPGDSDTRYSPSFQGQVTISADKSISTAYLQWSSLKASDTAMYYCASFGRNDAFDIWGQGTMVTVSS
VL: not shown
B3: D067 (antibody, V domains shown)
VH: EVQLVESGGGLVQPGGSLRLSCAASGFIFSGYDMHWVRQAPGKGLEWVSAIGTAGDTYYPGSVKGRFILSRENAKNSLYLQMNSLRAGDTAVYYCARALYRFGELLGYDYWGQGTLVTVSS
VL: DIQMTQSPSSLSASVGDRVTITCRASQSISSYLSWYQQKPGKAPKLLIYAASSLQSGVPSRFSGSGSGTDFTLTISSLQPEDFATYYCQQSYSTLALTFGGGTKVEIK
B4: D025 (antibody, V domains shown)
VH: QVQLVESGGGVVQPGRSLRLSCAASGFTFSSYGMHWVRQAPGKGLEWVAVISYDGSNKYYADSVKGRFTISRDNSKNTLYLQMNSLRAEDTAVYYCAKRGQGYCGGDCFSGYFDYWGQGTLVTVSS
VL: not shown
B5: D013 (antibody, V domains shown)
VH: QVQLVQSGAEVKKPGASVRISCKTSGYIFAYYFIHWFRQAPGQGPEWMGWINPKSGGTNYAQKFQDRVTMTTDSSITTAFMALRSLRSDDTAVYYCTREGVGTISDAGFGYWGQGTPVTVSS
VL: SYVLTQPPSVSVAPGKTATITCGGNNIGSKSVHWYHQKPGQAPVMVVYNDKERPSGIPERFSGSKSGNTATLTITWVEADDEADYYCQAWDRPSGYVFGTGTKVTVL
B6: D146 (antibody, V domains shown)
VH: QVQLVESGGGVVQPGRSLRLSCAASGFTFSSYGMHWVRQAPGKGLEWVAVISYDGSNKYYADSVKGRFTISRDNSKNTLYLQMNSLRAEDTAVYYCAKSLGSYCSSTSCYGGSFDYWGQGTLVTVSS
VL: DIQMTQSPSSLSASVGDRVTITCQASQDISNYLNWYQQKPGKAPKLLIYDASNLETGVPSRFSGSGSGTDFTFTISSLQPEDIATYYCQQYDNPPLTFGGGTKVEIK
B7: C2704 (antibody, V domains shown)
VH: EVQLVESGGDLVQPGGSLRLSCAASGFTFSTSWMHWVRQAPGKGLVWVSHINGDGSTTIYADSVKGRFTISRDNAKNTLYLQMNTLRAEDTAVYYCARNTGTHFDYWGQGTLVTVSS
VL: QSALTQPASVSGSPGQSITISCTGTSSDVGRYNYVSWYQQHPGKAPKVMIYDVSNRPSGVSNRFSGSKSGNTASLTISGLQAEDEADYYCSSYTSSSPWVFGGGTKLTVL
B8: D002 (antibody, V domains shown)
VH: EVQLVQSGAEVKKPGESLKISCKASGYNFTTSWIGWVRQMPGKGLEWMGIIYPGDFDTTYSPSFQGQVTISADKSISTAYLQWSSLKASDTAMYYCARVGPTAGTDGYNYLDWYFDLWGRGTLVTVSS
VL: SYELTQPPSVSVSPGQTARITCSGDALPKQFSYWYQQKPGQAPVLVIYKDNERPSGIPERFSGSSSGTTVTLTISGVQAEDEADYYCQSADSISWVFGGGTKLTVL
B9: D070 (antibody, V domains shown)
VH: EVQLVESGGGLVQPGGSLRLSCAASGFTFSSYEMNWVRQAPGKGLEWVSYISSSGSTIYYADSVKGRFTISRDNAKNSLYLQMNSLRAEDTAVYYCARVPRGYYDSSGYYYVGYYFDYWGQGTLVTVSS
VL: DIQLTQSPSFLSASVGDRVTITCRASQGISSYLAWYQQKPGKAPKLLIYAASTLQSGVPSRFSGSGSGTEFTLTISSLQPEDFATYYCQQLNSYTFTFGPGTKVDIK

Key:
[1] = target: T1, SARS-CoV-2 spike RBD (WT) (Severe acute respiratory syndrome …, UniProt P0DTC2); test: ELISA; design: unit not given here
[2] = target: T1, SARS-CoV-2 spike RBD (WT); test: BLI

Binder	binding score [1]	Kd [2] [nM]
B1	381	103
B2	41.6	8.76
B3	352	183
B4	> 10000	172
B5	1330	338
B6	574	98.1
B7	410	205
B8	3640	465
B9	716	115

Reference: PMC9876794 (2022)
